In the assay the target is MAP kinase (ERKs) of PC12 cells.

From patent US5998188 come the findings set out here.

In turn, “MKP-2 (rat mitogen-activated protein kinase phosphatase-2), full length, expressed from CMV-MKP-2 in PC12 cells” registered a Gal4-Elk-1 dependent luciferase activity induced by Raf BxB in PC12 cells (% of maximal levels) of 90.

B1: MKP-1, full length, expressed from CMV-MKP-1 in PC12 cells (enzyme)
chain: MVMEVGILDAGGLRALLREGAAQCLLLDCRSFFAFNAGHIAGSVNVRFSTIVRRRAKGAMGLEHIVPNAELRGRLLAGAYHAVVLLDERSASLDGAKRDGTLALAAGALCREARSTQVFFLQGGYEAFSASCPELCSKQSTPTGLSLPLSTSVPDSAESGCSSCSTPLYDQGGPVEILSFLYLGSAYHASRKDMLDALGITALINVSANCPNHFEGHYQYKSIPVEDNHKADISSWFNEAIDFIDSIKDAGGRVFVHCQAGISRSATICLAYLMRTNRVKLDEAFEFVKQRRSIISPNFSFMGQLLQFESQVLAPHCSAEAGSPAMAVLDRGTSTTTVFNFPVSIPVHPTNSALNYLKSPITTSPSC
The molecule B1 displayed a Gal4-Elk-1 dependent luciferase activity induced by Raf BxB in PC12 cells (% of maximally stimulated levels) of more than 60.
